Measurements from the RNAGym collection of RNA variant scans (doi:10.1021/acssynbio.7b00057).

B1: Pistol ribozyme (parent)
chain: GGGUCGUUGUUCCAUAAUCGCGUGGAUAUGGCACGCAAGUUUCUACCGGGCACCGUAAAUGUCCGACUGGAGCCGUUCGGGCGGCUAUAAACAGACCUCAGGCCCGAAGCGUGGCGGCACCUGCCGCCGGUGGUAAAAAAGAUCGGAAGAGCACACGUCU

Variants of: B1
Experiment: aptazyme ON/OFF ratio, guanine; higher = stronger switching; co-transcriptional cleavage with and without guanine

Question: Which “aptazyme ON/OFF ratio” value does the source give for U7A U8A G9U U11C C12G here?
Answer: Its value is 1.19.

Question: With U7A U8A U10A U11A C12G C13G as the variant, how does the “aptazyme ON/OFF ratio” value read?
Answer: Its value is 1.45.

Question: For U7A U8A U10A U11A C12G C13U, which “aptazyme ON/OFF ratio” value is on record?
Answer: The value was 1.13.

Question: With U7A U8A U10A U11A C12G C13A as the variant, how does the “aptazyme ON/OFF ratio” value read?
Answer: Its value is 1.05.

Question: For U7A U8A G9U U10G U11C C12G C13A, which “aptazyme ON/OFF ratio” value is on record?
Answer: The value was 1.09.

Question: With U7A U8A G9U U10G U11C C12G C13U as the variant, how does the “aptazyme ON/OFF ratio” value read?
Answer: The value was 1.24.

Question: For U7A U8A G9U U10G U11C C12G C13G, which “aptazyme ON/OFF ratio” value is on record?
Answer: The value was 1.14.

Question: Which “aptazyme ON/OFF ratio” value does the source give for U7A U8A U10A U11A C13A here?
Answer: The value was 1.16.

Question: For U7A U8A U10A U11A C13G, which “aptazyme ON/OFF ratio” value is on record?
Answer: The value was 1.18.

Question: Which “aptazyme ON/OFF ratio” value does the source give for U7A U8A U10A U11A C13U here?
Answer: The value was 1.11.

Question: For U7A U8A U10A U11C C12U C13G, which “aptazyme ON/OFF ratio” value is on record?
Answer: The value was 1.1.

Question: For U7A U8A U10A U11C C12U C13A, which “aptazyme ON/OFF ratio” value is on record?
Answer: Its value is 1.11.

Question: With U7A U8A U10A U11C C12U C13U as the variant, how does the “aptazyme ON/OFF ratio” value read?
Answer: The value was 1.04.

Question: For U7A U8A G9U U10A U11G C13G, which “aptazyme ON/OFF ratio” value is on record?
Answer: The value was 1.13.

Question: With U7A U8A G9U U10A U11G C13U as the variant, how does the “aptazyme ON/OFF ratio” value read?
Answer: The value was 1.19.

Question: With U7A U8A G9U U10A U11G C13A as the variant, how does the “aptazyme ON/OFF ratio” value read?
Answer: Its value is 1.22.

Question: For U7A U8A G9U U10A U11G C12U C13U, which “aptazyme ON/OFF ratio” value is on record?
Answer: The value was 1.27.

Question: With U7A U8A G9U U10A U11G C12U C13A as the variant, how does the “aptazyme ON/OFF ratio” value read?
Answer: Its value is 1.25.

Question: With U7A U8A G9U U10A U11G C12U C13G as the variant, how does the “aptazyme ON/OFF ratio” value read?
Answer: The value was 1.15.

Question: Which “aptazyme ON/OFF ratio” value does the source give for U7A U8A G9U U10G U11C C12A C13A here?
Answer: Its value is 1.29.

Question: Which “aptazyme ON/OFF ratio” value does the source give for U7A U8A G9U U10G U11C C12A C13G here?
Answer: Its value is 1.15.

Question: For U7A U8A G9U U10G U11C C12A C13U, which “aptazyme ON/OFF ratio” value is on record?
Answer: Its value is 1.21.

Question: For U7A U8A U10A U11A C12U C13U, which “aptazyme ON/OFF ratio” value is on record?
Answer: Its value is 1.14.

Question: For U7A U8A U10A U11A C12U C13A, which “aptazyme ON/OFF ratio” value is on record?
Answer: The value was 1.33.

Question: For U7A U8A U10A U11A C12U C13G, which “aptazyme ON/OFF ratio” value is on record?
Answer: The value was 1.24.

Question: For U7A U8A G9U U10C U11G C12U C13G, which “aptazyme ON/OFF ratio” value is on record?
Answer: Its value is 1.07.

Question: Which “aptazyme ON/OFF ratio” value does the source give for U7A U8A G9U U10C U11G C12U C13A here?
Answer: The value was 1.15.

Question: For U7A U8A G9U U10C U11G C12U C13U, which “aptazyme ON/OFF ratio” value is on record?
Answer: Its value is 1.22.

Question: Which “aptazyme ON/OFF ratio” value does the source give for U7A U8A U10C U11A C12G C13U here?
Answer: Its value is 1.12.

Question: For U7A U8A U10C U11A C12G C13G, which “aptazyme ON/OFF ratio” value is on record?
Answer: Its value is 1.24.

Question: With U7A U8A U10C U11A C12G C13A as the variant, how does the “aptazyme ON/OFF ratio” value read?
Answer: The value was 1.12.

Question: Which “aptazyme ON/OFF ratio” value does the source give for U7A U8A U10C U11G C13A here?
Answer: Its value is 1.13.

Question: Which “aptazyme ON/OFF ratio” value does the source give for U7A U8A U10C U11G C13U here?
Answer: The value was 1.17.

Question: Which “aptazyme ON/OFF ratio” value does the source give for U7A U8A U10C U11G C13G here?
Answer: Its value is 1.2.

Question: Which “aptazyme ON/OFF ratio” value does the source give for U7A U8A G9U U10G U11C C12U C13A here?
Answer: The value was 1.09.

Question: With U7A U8A G9U U10G U11C C12U C13G as the variant, how does the “aptazyme ON/OFF ratio” value read?
Answer: Its value is 1.22.

Question: Which “aptazyme ON/OFF ratio” value does the source give for U7A U8A G9U U10G U11C C12U C13U here?
Answer: The value was 1.28.

Question: Which “aptazyme ON/OFF ratio” value does the source give for U7A U8A U10A U11C C12A C13U here?
Answer: The value was 1.11.

Question: With U7A U8A U10A U11C C12A C13G as the variant, how does the “aptazyme ON/OFF ratio” value read?
Answer: The value was 1.12.

Question: For U7A U8A U10A U11C C12A C13A, which “aptazyme ON/OFF ratio” value is on record?
Answer: The value was 1.04.

Question: With U7A U8A U10A U11G C12U C13A as the variant, how does the “aptazyme ON/OFF ratio” value read?
Answer: The value was 1.34.

Question: With U7A U8A U10A U11G C12U C13U as the variant, how does the “aptazyme ON/OFF ratio” value read?
Answer: Its value is 1.31.

Question: For U7A U8A U10A U11G C12U C13G, which “aptazyme ON/OFF ratio” value is on record?
Answer: The value was 1.15.

Question: Which “aptazyme ON/OFF ratio” value does the source give for U7A U8A G9U U11G C12G C13U here?
Answer: The value was 1.1.

Question: With U7A U8A G9U U11G C12G C13G as the variant, how does the “aptazyme ON/OFF ratio” value read?
Answer: Its value is 1.22.

Question: With U7A U8A G9U U11G C12G C13A as the variant, how does the “aptazyme ON/OFF ratio” value read?
Answer: The value was 1.22.

Question: With U7A U8A G9U U10C C13G as the variant, how does the “aptazyme ON/OFF ratio” value read?
Answer: The value was 1.03.

Question: With U7A U8A G9U U10C C13A as the variant, how does the “aptazyme ON/OFF ratio” value read?
Answer: Its value is 1.08.

Question: For U7A U8A G9U U10C C13U, which “aptazyme ON/OFF ratio” value is on record?
Answer: Its value is 1.2.

Question: Which “aptazyme ON/OFF ratio” value does the source give for U7A U8A U10C U11G C12G C13A here?
Answer: The value was 1.17.

Question: Which “aptazyme ON/OFF ratio” value does the source give for U7A U8A U10C U11G C12G C13G here?
Answer: Its value is 1.18.

Question: For U7A U8A U10C U11G C12G C13U, which “aptazyme ON/OFF ratio” value is on record?
Answer: The value was 1.19.

Question: For U7A U8A G9U U10G, which “aptazyme ON/OFF ratio” value is on record?
Answer: Its value is 1.61.

Question: Which “aptazyme ON/OFF ratio” value does the source give for U7A U8A G9U U10C here?
Answer: The value was 2.34.

Question: With U7A U8A G9U U10C U11C C12G C13U as the variant, how does the “aptazyme ON/OFF ratio” value read?
Answer: The value was 1.04.

Question: For U7A U8A G9U U10C U11C C12G C13A, which “aptazyme ON/OFF ratio” value is on record?
Answer: Its value is 1.07.

Question: With U7A U8A G9U U10C U11C C12G C13G as the variant, how does the “aptazyme ON/OFF ratio” value read?
Answer: Its value is 1.07.

Question: Which “aptazyme ON/OFF ratio” value does the source give for U7A U8A U10C C12A here?
Answer: Its value is 1.16.

Question: With U7A U8A U10C C12U as the variant, how does the “aptazyme ON/OFF ratio” value read?
Answer: Its value is 1.68.

Question: Which “aptazyme ON/OFF ratio” value does the source give for U7A U8A U10C C12G here?
Answer: Its value is 1.16.

Question: Which “aptazyme ON/OFF ratio” value does the source give for U7A U8A G9U U10C U11A C12U here?
Answer: The value was 1.23.

Question: With U7A U8A G9U U10C U11A C12A as the variant, how does the “aptazyme ON/OFF ratio” value read?
Answer: Its value is 1.22.

Question: For U7A U8A G9U U10C U11A C12G, which “aptazyme ON/OFF ratio” value is on record?
Answer: The value was 1.18.

Question: For U7A U8A U10C C13U, which “aptazyme ON/OFF ratio” value is on record?
Answer: Its value is 1.98.

Question: Which “aptazyme ON/OFF ratio” value does the source give for U7A U8A U10C C13G here?
Answer: The value was 1.09.

Question: For U7A U8A U10C C13A, which “aptazyme ON/OFF ratio” value is on record?
Answer: The value was 1.11.

Question: For U7A U8A G9U U10G U11A C12U, which “aptazyme ON/OFF ratio” value is on record?
Answer: Its value is 1.07.

Question: With U7A U8A G9U U10G U11A C12G as the variant, how does the “aptazyme ON/OFF ratio” value read?
Answer: Its value is 1.32.

Question: Which “aptazyme ON/OFF ratio” value does the source give for U7A U8A G9U U10G U11A C12A here?
Answer: Its value is 1.29.

Question: With U7A U8A U10A U11A C12A C13A as the variant, how does the “aptazyme ON/OFF ratio” value read?
Answer: Its value is 1.12.

Question: Which “aptazyme ON/OFF ratio” value does the source give for U7A U8A U10A U11A C12A C13G here?
Answer: Its value is 1.19.

Question: For U7A U8A U10A U11A C12A C13U, which “aptazyme ON/OFF ratio” value is on record?
Answer: The value was 1.25.

Question: Which “aptazyme ON/OFF ratio” value does the source give for U7A U8A U10A here?
Answer: Its value is 1.05.

Question: With U7A U8A U10G as the variant, how does the “aptazyme ON/OFF ratio” value read?
Answer: The value was 1.52.

Question: Which “aptazyme ON/OFF ratio” value does the source give for U7A U8A U10C here?
Answer: The value was 3.05.

Question: For U7A U8A U10C U11C C12G C13U, which “aptazyme ON/OFF ratio” value is on record?
Answer: Its value is 1.08.

Question: With U7A U8A U10C U11C C12G C13A as the variant, how does the “aptazyme ON/OFF ratio” value read?
Answer: Its value is 1.1.

Question: With U7A U8A U10C U11C C12G C13G as the variant, how does the “aptazyme ON/OFF ratio” value read?
Answer: The value was 1.21.

Question: Which “aptazyme ON/OFF ratio” value does the source give for U7A U8A G9U U11G C12U C13A here?
Answer: The value was 1.28.

Question: For U7A U8A G9U U11G C12U C13G, which “aptazyme ON/OFF ratio” value is on record?
Answer: The value was 1.17.

Question: For U7A U8A G9U U11G C12U C13U, which “aptazyme ON/OFF ratio” value is on record?
Answer: Its value is 1.55.

Question: For U7A U8A U10C U11A C12A C13U, which “aptazyme ON/OFF ratio” value is on record?
Answer: Its value is 1.16.

Question: Which “aptazyme ON/OFF ratio” value does the source give for U7A U8A U10C U11A C12A C13A here?
Answer: The value was 1.1.

Question: Which “aptazyme ON/OFF ratio” value does the source give for U7A U8A U10C U11A C12A C13G here?
Answer: The value was 1.18.
